Data published in patent US20210052718A1.

Legend:
[1] = molecular target: Split RSV4° C. (inactivated at low temperature (4° C.) and split) (respiratory syncytial virus) (UniProt P03420); assay: ELISA on coated virus preparation; grade ++++++ = OD >2.5
[2] = molecular target: FI-RSV (post F): formalin-inactivated whole RSV (respiratory syncytial virus) (UniProt P03420); assay: ELISA on coated virus preparation; grade +++ = OD 1-1.5
[3] = molecular target: Split RSV37° C. (standard preparation of inactivated split RSV vaccine) (respiratory syncytial virus) (UniProt P03420); assay: ELISA on coated virus preparation; grade +++++ = OD 2-2.5
Chain of Split RSV37° C. (standard preparation of inactivated split RSV vaccine) (respiratory syncytial virus) (P03420 26-574): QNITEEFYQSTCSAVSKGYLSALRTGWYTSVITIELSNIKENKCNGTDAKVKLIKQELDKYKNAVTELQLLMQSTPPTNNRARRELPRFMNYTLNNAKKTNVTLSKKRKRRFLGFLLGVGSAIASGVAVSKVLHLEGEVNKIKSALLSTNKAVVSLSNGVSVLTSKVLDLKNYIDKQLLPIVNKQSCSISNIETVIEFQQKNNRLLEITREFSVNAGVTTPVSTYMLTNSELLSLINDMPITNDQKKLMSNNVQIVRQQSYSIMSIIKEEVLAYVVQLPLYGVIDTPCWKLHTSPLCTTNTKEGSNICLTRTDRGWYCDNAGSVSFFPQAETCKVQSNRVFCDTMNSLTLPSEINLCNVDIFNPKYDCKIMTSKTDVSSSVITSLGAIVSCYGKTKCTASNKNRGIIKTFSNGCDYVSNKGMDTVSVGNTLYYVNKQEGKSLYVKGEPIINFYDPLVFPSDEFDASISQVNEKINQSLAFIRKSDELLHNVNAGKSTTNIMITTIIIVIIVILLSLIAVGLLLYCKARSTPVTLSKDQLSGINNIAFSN

[4] = molecular target: Live RSV (A2 strain) (respiratory syncytial virus A2 strain) (UniProt P03420); assay: ELISA on coated virus; grade +++ = OD 1-1.5
Chain of Live RSV (A2 strain) (respiratory syncytial virus A2 strain) (P03420 26-574): as above

Chain of Split RSV4° C. (inactivated at low temperature (4° C.) and split) (respiratory syncytial virus) (P03420 26-574): as above
Chain of UniProt P03420 (P03420 26-574): as above

Q: With palivizumab (antibody) as the substance, how does the ELISA OD [1] read?
A: The ELISA OD was over 2.5 od.

Q: What about the ELISA OD [2] of the same substance?
A: The ELISA OD was 1 to 1.5 od.

Q: And the ELISA OD [3]?
A: The ELISA OD was 2 to 2.5 od.

Q: What about the ELISA OD [4] of the same substance?
A: Its ELISA OD is 1 to 1.5 od.
